From paper PMC10579229 (Nature Communications, 2023) come the findings set out here.

Series [1] addresses capsid protein VP1 of GII.4 Den Haag HuNoV (human norovirus GII.4 (Den Haag)).
Series [2] deals with capsid protein VP1 of GII.4 New Orleans HuNoV (human norovirus GII.4 (New Orleans)).
Series [3] deals with the molecule itself. In words: crystal structure; P-domain and M4 mixed 1:1.5, complex peak from S200 gel filtration; crystals at 20 °C in 2% Tacsimate pH 4.0, 0.1 M sodium acetate pH 4.6, 16% PEG 3350; 2.87 Å. (In general: Size exclusion chromatography separates by hydrodynamic size, large species first.)

B1: nanobody M4 (VHH)
VHH: QVKLQQSGGGLVQPGGSLRLSCAASESTISINTLGWYRQAPGNQRELVATITTGGTTNYADSVKGRFTISRDNAKNTVYLQMNNLEPGDTAVYYCNLKRRDLQSRFGGYWGQGTQVTVSS
On to B1, for which, in series [1], the IC50 of neutralisation of GII.4 Den Haag HuNoV (stool filtrate, 100 TCID50) in J4 FUT2 human intestinal enteroid monolayers; viral genome equivalents by RT-qPCR at 24 hpi came to 0.379 µg/mL. For the same molecule, the IC50 of neutralisation of GII.4 New Orleans HuNoV (stool filtrate, 100 TCID50) in J4 FUT2 human intestinal enteroid monolayers; viral genome equivalents by RT-qPCR at 24 hpi in series [2] turned out to be 0.056 µg/mL.

B2: GII.4 Sydney 2012 P-domain (protruding domain of the capsid protein VP1) (domain or fragment)
chain: ESRTKPFSVPVLTVEEMTNSRFPIPLEKLFTGPSSAFVVQPQNGRCTTDGVLLGTTQLSPVNICTFRGDVTHITGSRNYTMNLASQNWNDYDPTEEIPAPLGTPDFVGKIQGVLTQTTRTDGSTRGHKATVYTGSADFAPKLGRVQFETDTDRDFEANQNTKFTPVGVIQDGGTTHRNEPQQWVLPSYSGRNTHNVHLAPAVAPTFPGEQLLFFRSTMPGCSGYPNMDLDCLLPQEWVQYFYQEAAPAQSDVALLRFVNPDTGRVLFECKLHKSGYVTVAHTGQHDLVIPPNGYFRFDSWVNQFYTLAPMG
modifications: biotin (EZ-Link NHC-LC-LC-biotin), in the BLI only
notes: also called GII.4 P-domain; GII.4 Sydney P-domain; source: E. coli BL21(DE3), purified (His-Trap, TEV cleavage, His-Trap, MBPTrap, SEC); not shown: His6, N-terminal, cleaved; MBP, N-terminal, cleaved
As a reminder, the stoichiometry N is a count of units in the complex or per binding partner. With B2, in series [3], the “stoichiometry N” value worked out at 2.
